Data published in paper PMC3438722, “DNA Binding in High Salt: Analysing the Salt Dependence of Replication Protein A3 from the Halophile Haloferax volcanii” (Archaea, 2012).

Legend:
[1] = target: the molecule itself; experiment: SEC; analytical, 10/300 Superdex 200, 50 mM HEPES pH 7.0, 0.2 M KCl; 250 ug protein incubated one hour in the buffer; calibrated with gel filtration standards
[2] = target: the molecule itself; experiment: SEC; last step of the purification, 26/60 Superdex 200, 50 mM Hepes pH 7.0, 1.0 M NaCl
[3] = target: the molecule itself; experiment: SEC; analytical, 10/300 Superdex 200, 50 mM HEPES pH 7.0, 1.0 M KCl; 250 ug protein incubated one hour in the buffer; calibrated with gel filtration standards
HvRPA3 CTD-1 [4] = target: T1, HvRPA3 CTD-1 (Haloferax volcanii DS2 (wild-type), UniProt D4GZS1 164-311); experiment: analytical SEC; any KCl condition (0.2, 1, 3 M); data not shown; FA: 50 mM HEPES pH 7.0, 10% glycerol, 0.03% BSA, 20 nM Cy5-oligo, 0.2, 1 or 3 M KCl, room temperature 10 min; SEC: 50 mM HEPES pH 7.0, 0.2, 1 or 3 M KCl; EMSA:; details: protein: recombinant; tags: N-terminal 6xHis; chain copies: 4; single strand
T1 sequence: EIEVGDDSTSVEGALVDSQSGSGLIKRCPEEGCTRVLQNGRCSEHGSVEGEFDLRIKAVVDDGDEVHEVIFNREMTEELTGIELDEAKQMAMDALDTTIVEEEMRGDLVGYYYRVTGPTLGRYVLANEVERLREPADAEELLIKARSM

HvRPA3 CTD-2 [5] = target: T2, HvRPA3 CTD-2 (Haloferax volcanii DS2 (wild-type), UniProt D4GZS1 164-311); experiment: as above; details: protein: recombinant; tags: N-terminal 6xHis; single strand
T2 sequence: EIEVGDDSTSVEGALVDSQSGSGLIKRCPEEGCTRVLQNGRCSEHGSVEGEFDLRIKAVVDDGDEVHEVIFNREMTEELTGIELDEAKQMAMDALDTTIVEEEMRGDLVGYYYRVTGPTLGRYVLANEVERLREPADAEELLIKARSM

[6] = target: the molecule itself; experiment: SEC; analytical, 10/300 Superdex 200, 50 mM HEPES pH 7.0, 1.0 M KCl, with equimolar (monomer equivalent) 18mer ssDNA
HvRPA3-NTD (OB-fold) = target: T3, HvRPA3-NTD (OB-fold) (Haloferax volcanii DS2 (wild-type), UniProt D4GZS1 1-163); experiment: fluorescence anisotropy; 1 M KCl; two-site fit, high-affinity site; dimer concentration; FA: 50 mM HEPES pH 7.0, 10% glycerol, 0.03% BSA, 20 nM Cy5-oligo, 0.2, 1 or 3 M KCl, room temperature 10 min; SEC: 50 mM HEPES pH 7.0, 0.2, 1 or 3 M KCl; EMSA:; details: protein: recombinant; tags: N-terminal 6xHis; label: 5' Cy5; single strand
T3 sequence: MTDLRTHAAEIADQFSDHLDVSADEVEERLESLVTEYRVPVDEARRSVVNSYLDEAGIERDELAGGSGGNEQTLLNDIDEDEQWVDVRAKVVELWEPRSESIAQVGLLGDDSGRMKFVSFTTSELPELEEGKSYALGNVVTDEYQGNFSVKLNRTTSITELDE

HvRPA3 full length [7] = target: T4, HvRPA3 full length (Haloferax volcanii DS2 (wild-type), UniProt D4GZS1 1-311); experiment: fluorescence anisotropy; 3 M KCl; Hill 1.2 ± 0.1; FA: 50 mM HEPES pH 7.0, 10% glycerol, 0.03% BSA, 20 nM Cy5-oligo, 0.2, 1 or 3 M KCl, room temperature 10 min; SEC: 50 mM HEPES pH 7.0, 0.2, 1 or 3 M KCl; EMSA:; details: protein: recombinant; tags: N-terminal 6xHis; label: 5' Cy5; single strand
T4 sequence: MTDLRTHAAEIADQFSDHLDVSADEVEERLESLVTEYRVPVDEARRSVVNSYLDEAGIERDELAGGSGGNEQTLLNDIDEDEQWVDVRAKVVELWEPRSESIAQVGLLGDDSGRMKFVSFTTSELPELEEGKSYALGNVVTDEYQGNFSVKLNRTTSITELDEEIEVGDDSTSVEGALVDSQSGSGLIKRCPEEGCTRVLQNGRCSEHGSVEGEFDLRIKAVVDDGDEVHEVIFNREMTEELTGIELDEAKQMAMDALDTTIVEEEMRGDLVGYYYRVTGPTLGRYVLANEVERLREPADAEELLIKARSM

HvRPA3 full length [8] = target: T4, HvRPA3 full length; experiment: fluorescence anisotropy; 1 M KCl; Hill 0.9 ± 0.1; monomer equivalents; FA: 50 mM HEPES pH 7.0, 10% glycerol, 0.03% BSA, 20 nM Cy5-oligo, 0.2, 1 or 3 M KCl, room temperature 10 min; SEC: 50 mM HEPES pH 7.0, 0.2, 1 or 3 M KCl; EMSA:; details: protein: recombinant; tags: N-terminal 6xHis; label: 5' Cy5; single strand
HvRPA3 CTD-1 [9] = target: T1, HvRPA3 CTD-1; experiment: fluorescence anisotropy; any KCl condition; data not shown; FA: 50 mM HEPES pH 7.0, 10% glycerol, 0.03% BSA, 20 nM Cy5-oligo, 0.2, 1 or 3 M KCl, room temperature 10 min; SEC: 50 mM HEPES pH 7.0, 0.2, 1 or 3 M KCl; EMSA:; details: protein: recombinant; tags: N-terminal 6xHis; chain copies: 4; label: 5' Cy5; single strand
HvRPA3 CTD-2 [10] = target: T2, HvRPA3 CTD-2; experiment: as above; details: protein: recombinant; tags: N-terminal 6xHis; label: 5' Cy5; single strand

Binder | stoichiometry N [1] | stoichiometry N [2] | stoichiometry N [3] | also measured
HvRPA3 C-terminal domain (residues 164-311), second size exclusion peak (CTD-2) (domain or fragment, Haloferax volcanii, UniProt D4GZS1 164-311, looked up, Replication protein A3 (RPA3) of Haloferax volcanii, C-terminal domain residues 164-311, holds the zinc finger motif; Same construct as m3; the peak of lower apparent mass in the last purification step; Holds zinc (0.53 mol/mol); also called HvRPA3-CTD-2; source: E. coli B834 (DE3), purified (ammonium sulphate fractionation, Talon resin, Superdex 200; second of two peaks); not shown: 6xHis, …) EIEVGDDSTSVEGALVDSQSGSGLIKRCPEEGCTRVLQNGRCSEHGSVEGEFDLRIKAVVDDGDEVHEVIFNREMTEELTGIELDEAKQMAMDALDTTIVEEEMRGDLVGYYYRVTGPTLGRYVLANEVERLREPADAEELLIKARSM | 3 | 2 |  | 
HvRPA3 C-terminal domain (residues 164-311), first size exclusion peak (CTD-1) (domain or fragment, Haloferax volcanii, UniProt D4GZS1 164-311, looked up, Replication protein A3 (RPA3) of Haloferax volcanii, C-terminal domain residues 164-311, holds the zinc finger motif; Same construct as m4; the peak of higher apparent mass in the last purification step, concentrated apart; also called HvRPA3-CTD-1; source: E. coli B834 (DE3), purified (ammonium sulphate fractionation, Talon resin, Superdex 200; first of two peaks); not shown: 6xHis, N-terminal, …) EIEVGDDSTSVEGALVDSQSGSGLIKRCPEEGCTRVLQNGRCSEHGSVEGEFDLRIKAVVDDGDEVHEVIFNREMTEELTGIELDEAKQMAMDALDTTIVEEEMRGDLVGYYYRVTGPTLGRYVLANEVERLREPADAEELLIKARSM | 7 | 4 | 5 | 
GCGTGTGTGGTGGTGTGC (ssDNA) [18mer ssDNA (SEC)] |  |  |  | binding result (HvRPA3 CTD-1 [4]): no binding; binding result (HvRPA3 CTD-2 [5]): no binding
HvRPA3 N-terminal domain (residues 1-163) (domain or fragment, Haloferax volcanii, UniProt D4GZS1 1-163, looked up, Replication protein A3 (RPA3) of Haloferax volcanii, N-terminal domain residues 1-163, holds the OB-fold; Tagged construct has a predicted MW of 18.9 x 10^3; also called NTD; HvRPA3-NTD; source: E. coli B834 (DE3), purified (ammonium sulphate fractionation, Talon resin, Superdex 200); not shown: 6xHis, N-terminal, kept) MTDLRTHAAEIADQFSDHLDVSADEVEERLESLVTEYRVPVDEARRSVVNSYLDEAGIERDELAGGSGGNEQTLLNDIDEDEQWVDVRAKVVELWEPRSESIAQVGLLGDDSGRMKFVSFTTSELPELEEGKSYALGNVVTDEYQGNFSVKLNRTTSITELDE | 3 |  |  | stoichiometry N [6]: 2
GCGTGTGTGGTGGTGTGC (ssDNA) [Cy5-18mer ssDNA (FA)] |  |  |  | Kd (HvRPA3-NTD (OB-fold)): 4.1 ± 7.9 nM; Kd (HvRPA3 full length [7]): 24.1 ± 2.9 nM; Kd (HvRPA3 full length [8]): 53.9 ± 18.3 nM; binding result (HvRPA3 CTD-1 [9]): no binding; binding result (HvRPA3 CTD-2 [10]): no binding
Replication protein A3 from Haloferax volcanii, full length (natural protein, UniProt D4GZS1 1-311, looked up, Replication protein A3 (RPA3) of Haloferax volcanii, amplified from genomic DNA of wild-type DS2; full length, residues 1-311 (the CTD construct ends at 311); Oligomeric state depends on the salt concentration; Tagged protein has a predicted MW of 35.4 x 10^3; also called HvRPA3; RPA3; source: E. coli B834 (DE3), purified (ammonium sulphate fractionation, Talon resin, Superdex 200); not shown: …) MTDLRTHAAEIADQFSDHLDVSADEVEERLESLVTEYRVPVDEARRSVVNSYLDEAGIERDELAGGSGGNEQTLLNDIDEDEQWVDVRAKVVELWEPRSESIAQVGLLGDDSGRMKFVSFTTSELPELEEGKSYALGNVVTDEYQGNFSVKLNRTTSITELDEEIEVGDDSTSVEGALVDSQSGSGLIKRCPEEGCTRVLQNGRCSEHGSVEGEFDLRIKAVVDDGDEVHEVIFNREMTEELTGIELDEAKQMAMDALDTTIVEEEMRGDLVGYYYRVTGPTLGRYVLANEVERLREPADAEELLIKARSM | 4 |  | 2 | 
